Results from paper PMC4981022.
Read-outs that look alike come from different tables or passages of the source.

Legend:
[1] = molecular target: endogenous TRAPPC6A (TPC6A), human cells (human (endogenous in HEK293, BCC, SK-N-SH and other human cell lines)) (UniProt O75865); test: western blotting (size of the bands); cytosol and nuclei of BCC cells, with or without UV irradiation; mitochondria of Jurkat T cells treated with PMA for 90 min
[2] = molecular target: endogenous TRAPPC6A (TPC6A), human cells (human (endogenous in HEK293, BCC, SK-N-SH and other human cell lines)) (UniProt O75865); test: as above; remark: listed apart in the source

stoichiometry N [1]: 2
stoichiometry N [2]: 3
Substance: endogenous TRAPPC6A (TPC6A), human cells (from UniProt O75865 1-159) (natural protein)
